Legend:
[1] = target: HomB, outer membrane protein of Helicobacter pylori (recombinant, C-terminal His-tag) (Helicobacter pylori strain J99); experiment: SAXS; ~2.5 mg/ml protein in 20 mM Tris-Cl pH 8, 200 mM NaCl, 5 mM BME; molecular weight from Porod volume, concentration-independent
[2] = target: HomB, outer membrane protein of Helicobacter pylori (recombinant, C-terminal His-tag) (Helicobacter pylori strain J99); experiment: SDS-PAGE of SEC fractions; monomer and dimer peak fractions of the size exclusion runs on SDS-PAGE with or without beta-mercaptoethanol
[3] = target: HomB, outer membrane protein of Helicobacter pylori (recombinant, C-terminal His-tag) (Helicobacter pylori strain J99); experiment: SEC; 1 mg protein on Superose 12, 50 mM Tris-Cl pH 8.0, 300 mM NaCl, 4 °C, 0.5 ml/min; alone or with detergents (LDAO, CHAPS, TWEEN 20) or 1 mM lipids (DMPC, DOPC); calibrated with molecular weight markers
[4] = target: HomA, outer membrane protein of Helicobacter pylori (recombinant, C-terminal His-tag) (Helicobacter pylori strain J99); experiment: SAXS; ~2.5 mg/ml protein in 20 mM Tris-Cl pH 8, 200 mM NaCl, 5 mM BME; molecular weight from Porod volume, concentration-independent
[5] = target: HomA, outer membrane protein of Helicobacter pylori (recombinant, C-terminal His-tag) (Helicobacter pylori strain J99); experiment: SDS-PAGE of SEC fractions; monomer and dimer peak fractions of the size exclusion runs on SDS-PAGE with or without beta-mercaptoethanol
[6] = target: HomA, outer membrane protein of Helicobacter pylori (recombinant, C-terminal His-tag) (Helicobacter pylori strain J99); experiment: SEC; 1 mg protein on Superose 12, 50 mM Tris-Cl pH 8.0, 300 mM NaCl, 4 °C, 0.5 ml/min; alone or with detergents (LDAO, CHAPS, TWEEN 20) or 1 mM lipids (DMPC, DOPC); calibrated with molecular weight markers

Measured: stoichiometry N

HomB, outer membrane protein of Helicobacter pylori (recombinant, C-terminal His-tag) (natural protein)
2: [1] | [2] | [3]

HomA, outer membrane protein of Helicobacter pylori (recombinant, C-terminal His-tag) (natural protein)
2: [4] | [5] | [6]

Source: PMC8714817
